From patent US20230140200A1, “COMPOSITIONS AND METHODS FOR DETECTING CELLS UNDERGOING FERROPTOSIS USING AN ANTIBODY” (THE TRUSTEES OF COLUMBIA UNIVERSITY IN THE CITY OF NEW YORK, priority 2020, published 2023)

Experiments:
[1] = tested on: TfR1; assay: Western blot of TfR1 during ferroptosis; assay type: cell-based, human; conditions: RSL3-induced and IKE-induced ferroptosis, HT-1080 cells
Method: HT-1080 cells were seeded in DMEM (Corning 10-013-CM) and 10% Hi-FBS with 1% penicillin and streptomycin (PS) with 1% MEM Non-Essential Amino Acids Solution (100×) (Thermo Fisher Scientific 11140-076) 16 h prior to use. DMSO or 1 μM of RSL3 was added and incubated for 4 h. Following treatment, the medium was aspirated from each dish and cells were washed twice with PBS. Cells were lysed with 70 μl lysis buffer (RIPA buffer from ThermoFisher, cat. 89900, 1 mM EDTA, 1 mM PMSF, 1× Halt™ protease inhibitor cocktail from ThermoFisher, cat. 78430 and 1× Halt™ phosphatase inhibitor cocktail from ThermoFisher, cat. 78426). Unlysed cells and debris were pelleted for 15 min at 16,000×g at 4° C. Samples were separated using SDS-PAGE and transferred to a polyvinylidene difluoride membrane. Transfer was performed using the iBlot2 system (Invitrogen). […]

[2] = tested on: SK-BR-3 cells; assay: Immunofluorescence in SK-BR-3 cells; assay type: cell-based, human; conditions: 1 μM RSL3, 4 h
[3] = tested on: Huh-7 cells; assay: Immunofluorescence in Huh-7 cells; assay type: cell-based; conditions: 1 μM RSL3, 4 h
[4] = tested on: SK-LMS-1 cells; assay: Immunofluorescence in SK-LMS-1 cells; assay type: cell-based, human; conditions: 1 μM RSL3, 4 h
[5] = tested on: human brain tissues; assay: Staining of post-mortem Huntington's disease and control brain tissues; conditions: HD and control groups
Method: (§1) FIGS. 12A-12B show 3F3 FMA staining in human Huntington's disease brains and mouse tissues. In FIG. 12A, human HD and control brain tissues were fixed in 4% PFA for 24 h, perfused in 30% sucrose for 24 h, and stained with DAPI (nuclei, blue) and 3F3 FMA (red). The expression level of TfR1 is low. There was no difference between HD and control groups. In FIG. 12B, mouse liver tissues and mouse GBM tissues were fixed and stained with DAPI (nuclei, blue) and 3F3 FMA (red). 3F3 FMA was able to recognize mouse TfR1.

[6] = tested on: mouse liver tissues; assay: Staining of normal mouse liver frozen tissue
Method: as §1

[7] = molecular target: T1, mouse TfR1 (Mus musculus, UniProt Q62351); assay: Staining of mouse glioblastoma paraffin-embedded tissue; conditions: paraffin-embedded GBM tissue
T1 construct: We evaluated 3F3-FMA staining in mouse glioblastoma (GBM) paraffin-embedded tissue samples; from tissue; host or cells: mouse glioblastoma (murine glioma model, c57/B6 mice), paraffin-embedded brain sections
Method: All procedures were performed according to the Columbia University Medical Center Institutional Animal Care and Use Committee. Murine glioma cell lines were created from tumor bearing mice. These tumors were generated by injection of a PDGF-IRES-Cre retrovirus into the subcortical white matter of mice with floxed PTEN and/or p53 (Sonabend et al., 2013). After mice reached end stage, the tumors were dissociated and primary cell cultures were created. These cells harbored the specific mutations of the original tumors, and could be re-injected to form gliomas in c57/B6 mice with high fidelity. Briefly, mice between the ages of 6-8 weeks received 50,000 murine glioma cells through stereotactic injection after being anesthetized with a ketamine/xylazine cocktail (87.5 mg/12.5 mg w/w). After cessation of toe-pinch reflex, the scalp was shaved and cleaned with serial use of betadine and 70% ethanol swabs. An incision was made and the skull was exposed. A burr hole was created, 2 mm anterior, 2 mm lateral and 2 mm deep to the right of the bregma. The cells were injected into the subcortical white matter over a period of 3 minutes (0.333 μL/min). Once the injection ceased, the needle was left in place for 1 minute before being slowly withdrawn. After tumor developed, brains were harvested and fixed in 4% paraformaldehyde and embedded in paraffin. 5 micron sections were made for staining.

T1 sequence (Q62351 whole entry): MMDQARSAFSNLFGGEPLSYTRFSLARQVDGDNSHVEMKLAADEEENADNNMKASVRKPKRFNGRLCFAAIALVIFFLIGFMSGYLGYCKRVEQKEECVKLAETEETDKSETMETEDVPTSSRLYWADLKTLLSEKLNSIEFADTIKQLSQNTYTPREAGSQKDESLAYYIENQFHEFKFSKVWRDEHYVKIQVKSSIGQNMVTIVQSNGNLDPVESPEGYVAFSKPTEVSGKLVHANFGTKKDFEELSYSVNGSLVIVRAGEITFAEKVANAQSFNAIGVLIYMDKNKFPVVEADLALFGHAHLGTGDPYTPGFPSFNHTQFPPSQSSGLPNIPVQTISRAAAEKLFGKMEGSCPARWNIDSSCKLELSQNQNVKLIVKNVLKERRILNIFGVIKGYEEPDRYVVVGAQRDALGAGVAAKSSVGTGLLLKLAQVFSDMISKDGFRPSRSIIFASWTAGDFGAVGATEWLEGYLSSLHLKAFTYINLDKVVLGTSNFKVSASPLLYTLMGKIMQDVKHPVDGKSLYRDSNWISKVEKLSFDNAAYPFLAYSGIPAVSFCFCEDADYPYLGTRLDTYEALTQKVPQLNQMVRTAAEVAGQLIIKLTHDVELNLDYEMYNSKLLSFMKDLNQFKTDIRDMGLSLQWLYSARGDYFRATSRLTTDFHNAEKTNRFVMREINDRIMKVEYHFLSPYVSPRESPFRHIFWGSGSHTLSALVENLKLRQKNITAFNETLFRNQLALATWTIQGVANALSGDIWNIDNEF

recognition of TfR1 in tumor samples [7]: able to recognize mouse TfR1 protein
B1: 3F3-FMA: Murine monoclonal IgG1 raised against ferroptotic membrane fractions; antigen is transferrin receptor protein 1 (TfR1) (antibody, V domains shown)
VH: EVLLQQSGTELVRPGALVKLSCKASGFNIQDLYIHWVKQRPEQGLEWIGWIDPETDNTIYDPKFQGKASITADTSSNTAYLQLSSLTSEDTAMYYCSTGLLQWYFDVWGAGTAVTVSS
VL: DIVMTQSPSSLAMSIGQKVTMRCKSSQSLLNSYNQKNCLAWYQQKPGQSPKLLLYFVSTRESGVPDRFIGSGSGTDFTLTISSVQAEDLADYFCQQHYSTPLTFGAGTKLELK
intensity of western blot bands during ferroptosis [1]: increased intensity of the bands | 3F3-FMA staining upon ferroptosis induction [2]: concentrated at the cell boundaries and became brighter | 3F3-FMA staining upon ferroptosis induction [3]: concentrated at the cell boundaries and became brighter | 3F3-FMA staining upon ferroptosis induction [4]: concentrated at the cell boundaries and became brighter | staining signal in brain tissue [5]: lack of signal | staining signal in normal liver tissue [6]: robust signal
